The target in one series is T1, NfrA (NfrAhis6) (Campylobacter jejuni, UniProt Q0P871).
T1 construct: gene Cj1555c; recombinant His6-tagged (pET21a+), E. coli BL21(DE3), Ni-NTA
Nature of the series: NADPH oxidation at […] nm. In kind it is biochemical. The conditions noted are these: riboflavin as acceptor; pH ~7.5.

Another series addresses T2, MdaB (MdaBhis6) (Campylobacter jejuni, UniProt Q0P880).
T2 construct: gene Cj1545c; recombinant His6-tagged (pET21a+), E. coli BL21(DE3), Ni-NTA
The experiment in a line: NADPH oxidation at […] nm. The conditions noted are these: 0.2 mM quinone substrates; 200 μM NADPH; 50 mM Tris-HCl, 100 mM NaCl, 10% DMSO; pH ~7.5; 37°C; anaerobic. The series is classed as biochemical.

For series [1], the target named is T3, RrpB (Campylobacter jejuni, UniProt Q0P870 1-110).
T3 sequence: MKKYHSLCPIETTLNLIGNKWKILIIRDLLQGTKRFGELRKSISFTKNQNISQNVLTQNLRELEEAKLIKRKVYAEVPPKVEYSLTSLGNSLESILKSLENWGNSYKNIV
The experiment in a line: EMSA; DTT (higher complex); EMSA: Odyssey infrared EMSA kit, 50 nM probe, 20 ul, 6% gel at 4 C. Footprinting: 10 mM Tris-HCl pH 8.5, 30 mM K-glutamate, 1 mM DTT, 5 mM Mg acetate, 2 mM CaCl2, 0.125 mg/ml BSA, 30% glycerol, 25 C. Conditions: protein: recombinant; tags: C-terminal His6 (pET21a); chain copies: 2; label: 5' IRDye 800. (In general: In EMSA bound probe runs differently from free probe, usually more slowly.)

The target in series [2] is T3, RrpB. Nature of the series: EMSA; EMSA: Odyssey infrared EMSA kit, 50 nM probe, 20 ul, 6% gel at 4 C. Footprinting: 10 mM Tris-HCl pH 8.5, 30 mM K-glutamate, 1 mM DTT, 5 mM Mg acetate, 2 mM CaCl2, 0.125 mg/ml BSA, 30% glycerol, 25 C. The conditions noted are these: protein: recombinant; tags: C-terminal His6 (pET21a); chain copies: 2.
Series [3] addresses T4, RrpA (Campylobacter jejuni, UniProt Q0P879 1-115).
T4 sequence: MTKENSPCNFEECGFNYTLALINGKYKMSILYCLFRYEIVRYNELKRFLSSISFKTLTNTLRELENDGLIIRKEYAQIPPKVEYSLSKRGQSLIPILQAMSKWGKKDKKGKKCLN
Described as above. The conditions noted are these: protein: recombinant; tags: C-terminal His6 (pET21a); chain copies: 2.

For series [4], the target named is T4, RrpA. The experiment in a line: EMSA; 0.05 ug protein, 50 nM DNA; EMSA: Odyssey infrared EMSA kit, 50 nM probe, 20 ul, 6% gel at 4 C. Footprinting: 10 mM Tris-HCl pH 8.5, 30 mM K-glutamate, 1 mM DTT, 5 mM Mg acetate, 2 mM CaCl2, 0.125 mg/ml BSA, 30% glycerol, 25 C. Conditions: protein: recombinant; tags: C-terminal His6 (pET21a); chain copies: 2; label: 5' IRDye 800.

Here are results for ten molecules from paper PMC8765430, “MdaB and NfrA, Two Novel Reductases Important in the Survival and Persistence of the Major Enteropathogen Campylobacter jejuni” (Journal of Bacteriology, 2022).

Positions count from the first letter of the chain named.

T1 sequence (Q0P871 entry or part of it): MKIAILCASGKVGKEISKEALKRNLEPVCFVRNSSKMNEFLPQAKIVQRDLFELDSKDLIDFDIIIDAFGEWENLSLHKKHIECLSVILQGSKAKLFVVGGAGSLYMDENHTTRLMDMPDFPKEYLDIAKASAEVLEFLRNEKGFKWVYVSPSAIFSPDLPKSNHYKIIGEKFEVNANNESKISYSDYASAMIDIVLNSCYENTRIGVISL
T2 sequence (Q0P880 entry or part of it): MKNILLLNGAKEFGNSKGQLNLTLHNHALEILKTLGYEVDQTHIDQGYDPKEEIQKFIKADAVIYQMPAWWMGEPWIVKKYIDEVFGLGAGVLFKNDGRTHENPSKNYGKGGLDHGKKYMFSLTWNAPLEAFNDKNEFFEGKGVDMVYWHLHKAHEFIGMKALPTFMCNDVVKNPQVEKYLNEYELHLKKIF

Turning to `NC(=O)C1=CN([C@@H]2O[C@H](COP(=O)(O)OP(=O)(O)OC[C@H]3O[C@@H](n4cnc5c(N)ncnc54)[C@H](OP(=O)(O)O)[C@@H]3O)[C@@H](O)[C@H]2O)C=CC1` [NADPH], the values for the specific activity entry at NfrA (NfrAhis6) and on MdaB (MdaBhis6) were “This was indicative of NfrA’s preference for NADPH over NADH” and “reductase activity of MdaB was determined by monitoring the oxidation of NADPH”, respectively.

B1: nfrAprobe (dsDNA)
DNA 1: TAGATCTTTAATATTTATATAAATGATGATTTTTAGTTCATCTATAATAAAATATTATATCA
DNA 2: TGATATAATATTTTATTATAGATGAACTAAAAATCATCATTTATATAAATATTAAAGATCTA
For the molecule B1, the binding result with RrpB [1] was “binds”.

B2: rrpBprobe (rrpB WT) (dsDNA)
DNA 1: TTAAAAAATATGTTATAATTTTAAAAAATAAGGATTTATAATGAAAAAATAT
DNA 2: ATATTTTTTCATTATAAATCCTTATTTTTTAAAATTATAACATATTTTTTAA
In the case of B2, the binding result with RrpB [1] is recorded as “binds”.

B3: rrpB (-1) (dsDNA)
DNA 1: B2 DNA 1 with T36C, T37G, A38G, T39A, A40T, A41C
DNA 2: B2 DNA 2 with T12G, T13A, A14T, T15C, A16C, A17G
With B3, in the series with RrpB [2], the binding result was “binds”.

B4: rrpA WT (Fig. S1) (dsDNA)
DNA 1: GCATATAATATCATTTTCAATACAGAAAATAAAGTAATATACTATACTAAAGGAATGTTAAATGA
DNA 2: TCATTTAACATTCCTTTAGTATAGTATATTACTTTATTTTCTGTATTGAAAATGATATTATATGC
For B4, the binding result in the series with RrpA [3] was “binds”.

B5: mdaBprobe (dsDNA)
DNA 1: AAATTTAAAATACTATGTTAATATTGAATCGTATTATAGTAAAAGTT
DNA 2: AACTTTTACTATAATACGATTCAATATTAACATAGTATTTTAAATTT
As for B5, the binding result in the series with RrpA [4] is “binds”.

B6: rrpAprobe (dsDNA)
DNA 1: GCATAATATCATTTTCAATACAGAAAATAAAGTAATATACTATACTAAAGGAATGTTAAATGA
DNA 2: TCATTTAACATTCCTTTAGTATAGTATATTACTTTATTTTCTGTATTGAAAATGATATTATGC
Take B6: the binding result with RrpA [4] was “binds”.

B7: rrpA (-1) (dsDNA)
DNA 1: B6 DNA 1 with A39C, C40G, T41A, A42G, T43C
DNA 2: B6 DNA 2 with A21G, T22C, A23T, G24C, T25G
On to B7, for which the binding result with RrpA [3] is “binds”.

B8: rrpB (-2) (dsDNA)
DNA 1: TTAAAAAATATGCGGATCTTTTAAAAAATAAGGATCGGATCTGAAAAAATAT
DNA 2: ATATTTTTTCAGATCCGATCCTTATTTTTTAAAAGATCCGCATATTTTTTAA
Regarding B8, the binding result with RrpB [2] was “no binding”.

B9: rrpA (-2) (dsDNA)
DNA 1: GCATAATCGAGCTTTCAATACAGAAAATAAAGTAATATCGAGCACTAAAGGAATGTTAAATGA
DNA 2: TCATTTAACATTCCTTTAGTGCTCGATATTACTTTATTTTCTGTATTGAAAGCTCGATTATGC
As for B9, in the series with RrpA [3], the binding result is “no binding”.
